From patent US20220305136A1, “ANTI-CTLA4 CONJUGATES” (Ascendis Pharma Oncology Division A/S, priority 2019, published 2022)

Assay: Plasma pharmacokinetics of HHC^MET in Wistar rats
Format: in vivo
Details: n=3
Description: This study was performed in order to investigate the plasma pharmacokinetics of HHC^MET in Wistar rats following subcutaneous and intramuscular administration of transient HHC^MET-linker hydrogel prodrug 32 or following subcutaneous or intravenous administration of free HHC^MET. Animals (n=3 per group) received either a single SC injection in the neck region or a single IM injection in the thigh musculature of a formulation of 32 (10 mg/kg HHC^MET equivalents) or a single SC injection in the neck region or IV injection in the tail vein of an HHC^MET formulation (10 mg/kg HHCMet). At selected time points, 200 μL blood were collected in L^1-Heparin tubes and processed to plasma by centrifugation at 3,000 g for 10 minutes at 4° C.
HHC^MET concentrations in rat plasma were determined with an in-house developed sandwich ELISA setup. For capturing HHC^MET, a human CTLA-4 (AA Ala37-Ser160)—Fc Tag fusion protein (Supplier AcroBiosystem, Newark, Del.; USA, catalog no. CT4-H5255) was coated to the ELISA plate wells and read-out was performed via a rabbit anti-camelid VHH antibody conjugated with horseradish peroxidase (supplier Genscript, Piscataway, N.J., USA, catalog no. A01861-200).
Calibration standards of HHC^MET in blank plasma were prepared as follows: thawed L^1-Heparin Wistar rat plasma was homogenized. The free HHC^MET formulation was spiked into blank plasma at concentrations between 96.0 ng/mL and 3.00 ng/mL with additional higher and lower anchor points. These solutions were used for the generation of a calibration curve. Calibration curves were analyzed via a 4-parameter logarithmic fit and 1/Y weighted. Calibration curves were confirmed via separately prepared quality control standards at 10, 40 and 80 ng/mL.

B1: HHC^MET: custom made protein of SEQ ID NO:2, expressed from E. coli; captured by human CTLA-4 and detected with anti-camelid VHH antibody in ELISA (protein)
chain: EVQLVESGGGLVQAGGSLRLSCAASGGTFSFYGMGWFRQAPGKEQEFVADIRTSAGRTYYADSVKGRFTISRDNAKNTVYLQMNSLKPEDTAVYYCAAEMSGISGWDYWGQGTQVTVSSGGGGSGGGSEVQLVESGGGLVQAGGSLRLSCAASGGTFSFYGMGWFRQAPGKEQEFVADIRTSAGRTYYADSVKGRFTISRDNAKNTVYLQMNSLKPEDTAVYYCAAEMSGISGWDYWGQGTQVTVSS
modifications: nanobody
notes: captured by human CTLA-4 and detected with anti-camelid VHH antibody in ELISA
Q: With B1 as the molecule, how does the “mean HHC^MET concentration” value (0.25 h, 10 mg/kg HHC^MET (equivalents), subcutaneous) read?
A: 2540 ng/mL

Q: What about the “mean HHC^MET concentration” value (0.25 h, 10 mg/kg intravenous) of the same molecule?
A: 17400 ng/mL

Q: What about the “mean HHC^MET concentration” value (1 h, 10 mg/kg HHC^MET (equivalents), subcutaneous) of the same molecule?
A: 5090 ng/mL

Q: What about the “mean HHC^MET concentration” value (1 h, 10 mg/kg intravenous) of the same molecule?
A: 3530 ng/mL

Q: What about the “mean HHC^MET concentration” value (4 h, 10 mg/kg HHC^MET (equivalents), subcutaneous) of the same molecule?
A: 2280 ng/mL

Q: What about the “mean HHC^MET concentration” value (4 h, 10 mg/kg intravenous) of the same molecule?
A: 1720 ng/mL

Q: And the “mean HHC^MET concentration” value (24 h, 10 mg/kg HHC^MET (equivalents), subcutaneous, LLOQ 3.00 ng/mL)?
A: 2.60 ng/mL

Q: What about the “mean HHC^MET concentration” value (24 h, 10 mg/kg intravenous) of the same molecule?
A: 8.27 ng/mL

Q: What about the “mean HHC^MET concentration” value (32 h, 10 mg/kg HHC^MET (equivalents), subcutaneous, LLOQ 3.00 ng/mL) of the same molecule?
A: <LLOQ

Q: And the “mean HHC^MET concentration” value (32 h, 10 mg/kg intravenous, LLOQ 3.00 ng/mL)?
A: <LLOQ

Q: And the “mean HHC^MET concentration” value (48 h, 10 mg/kg HHC^MET (equivalents), subcutaneous, LLOQ 3.00 ng/mL)?
A: <LLOQ

Q: What about the “mean HHC^MET concentration” value (48 h, 10 mg/kg intravenous, LLOQ 3.00 ng/mL) of the same molecule?
A: <LLOQ

Q: And the “mean HHC^MET concentration” value (72 h, 10 mg/kg HHC^MET (equivalents), subcutaneous, LLOQ 3.00 ng/mL)?
A: 2.07 ng/mL

Q: What about the “mean HHC^MET concentration” value (72 h, 10 mg/kg intravenous, LLOQ 3.00 ng/mL) of the same molecule?
A: 1.15 ng/mL

Q: What about the “mean HHC^MET concentration” value (96 h, 10 mg/kg HHC^MET (equivalents), subcutaneous, LLOQ 3.00 ng/mL) of the same molecule?
A: <LLOQ

Q: And the “mean HHC^MET concentration” value (96 h, 10 mg/kg intravenous, LLOQ 3.00 ng/mL)?
A: <LLOQ

Q: And the “mean HHC^MET concentration” value (168 h, 10 mg/kg HHC^MET (equivalents), subcutaneous, LLOQ 3.00 ng/mL)?
A: <LLOQ

Q: And the “mean HHC^MET concentration” value (168 h, 10 mg/kg intravenous, LLOQ 3.00 ng/mL)?
A: <LLOQ
